Test results from article PMC6249252, “COMP and TSP-4 interact specifically with the novel GXKGHR motif only found in fibrillar collagens” (Scientific Reports, 2018).

Molecular target: collagen type XI (UniProt P12107 36-1563; P13942 28-1736, hydroxyproline/hydroxylysine expected in native collagen; preparation and processing not stated; alpha3(XI) taken as COL2A1 product)
Experiment: ELISA; collagen model peptide or collagen XI coated; COMP or TSP-4 at indicated concentrations in TBS-T with 0.25% BSA, 1 h, room temperature; detected with anti-COMP or anti-TSP-4 antibody; four-parameter logistic fit; apparent KD
Settings: both partners purified

B1: cartilage oligomeric matrix protein (COMP), wild type, pentameric (natural protein)
chain: not shown
notes: cartilage oligomeric matrix protein (COMP, TSP-5); residue numbers Asp593-Asp595 as in PDB 3FBY; also called COMP wt; TSP-5; source: HEK293 (EBNA), pCEP vector, serum-free supernatant, purified (Strep-Tactin)
B1 showed a Kd of 20 nM.
